Experimental findings from US20150197564A1 (Regeneron, published 2015) are described below.

One assay has as its target T1, hANGPTL3(17-460)-His (human, UniProt Q9Y5C1 17-460).
T1 construct: Bought protein (R&D Systems); also called full-length mature human ANGPTL3 with a C-terminal decahistidine tag; Human ANGPTL3 (17-460)-His
T1 sequence: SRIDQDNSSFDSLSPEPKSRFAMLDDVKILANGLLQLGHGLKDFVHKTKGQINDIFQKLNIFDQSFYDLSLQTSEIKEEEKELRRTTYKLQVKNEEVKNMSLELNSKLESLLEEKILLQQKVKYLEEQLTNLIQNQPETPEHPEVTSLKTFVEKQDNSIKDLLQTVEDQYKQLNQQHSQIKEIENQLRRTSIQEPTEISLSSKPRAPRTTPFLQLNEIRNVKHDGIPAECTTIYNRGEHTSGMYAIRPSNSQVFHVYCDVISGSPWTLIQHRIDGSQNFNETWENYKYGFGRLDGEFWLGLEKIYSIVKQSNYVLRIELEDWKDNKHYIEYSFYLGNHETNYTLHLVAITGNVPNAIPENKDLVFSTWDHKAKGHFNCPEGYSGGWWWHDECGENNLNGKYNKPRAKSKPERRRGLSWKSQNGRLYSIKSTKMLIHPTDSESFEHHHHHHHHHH
The assay is described as follows: SPR Biacore, antigen captured, 25C, pH 7.4, HBS-EP. The method, then:
(§1) All kinetic binding experiments were performed at 25° C. or 37° C. on a BIACORE™ T200 label-free molecular interaction instrument (GE Healthcare) using a CM5 sensor chip. Briefly, an antigen capture surface was generated by covalently coupling either an anti-mouse IgG-specific antibody (anti-mFc; GE Healthcare; catalog #BR-1008-38) or an anti-pentahistidine-specific antibody (Qiagen; catalog #34660) to the surface of a CM5 sensor chip using a standard amine coupling method.

The target in another assay is T2, MfANGPTL3(17-170)-mmH (Macaca fascicularis).
T2 construct: also called N-terminal coiled-coil domain of ANGPTL3 from Macaca fascicularis with myc-myc-hexahistidine tag; Monkey ANGPTL3 (17-170)-mmH
T2 chain: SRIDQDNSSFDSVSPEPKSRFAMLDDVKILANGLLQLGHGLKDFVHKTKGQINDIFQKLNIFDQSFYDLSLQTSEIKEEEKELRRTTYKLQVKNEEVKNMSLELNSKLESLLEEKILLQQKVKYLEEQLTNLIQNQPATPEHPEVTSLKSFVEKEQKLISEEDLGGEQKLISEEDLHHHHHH
Kind of assay: SPR Biacore, antigen captured, 25C, pH 7.4, HBS-EP. The method, then: as §1

The next assay deals with T3, mANGPTL3(17-455)-His (Mus musculus, UniProt Q9R182 17-455).
T3 construct: Bought protein (R&D Systems); also called full-length mature ANGPTL3 from Mus musculus with a C-terminal decahistidine tag
T3 sequence: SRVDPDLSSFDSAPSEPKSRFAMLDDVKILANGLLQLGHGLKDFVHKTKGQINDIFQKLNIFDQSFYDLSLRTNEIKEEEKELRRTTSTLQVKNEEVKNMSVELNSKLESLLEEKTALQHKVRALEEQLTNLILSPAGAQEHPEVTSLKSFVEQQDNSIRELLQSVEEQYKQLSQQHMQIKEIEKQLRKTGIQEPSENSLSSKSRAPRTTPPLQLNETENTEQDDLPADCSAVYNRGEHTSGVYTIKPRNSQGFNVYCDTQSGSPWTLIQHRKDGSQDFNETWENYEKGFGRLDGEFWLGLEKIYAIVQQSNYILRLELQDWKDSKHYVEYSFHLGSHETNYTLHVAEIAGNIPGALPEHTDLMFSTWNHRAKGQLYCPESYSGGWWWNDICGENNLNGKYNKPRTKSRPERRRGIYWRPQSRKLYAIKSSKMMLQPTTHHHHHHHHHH
Kind of assay: SPR Biacore, antigen captured, 25C, pH 7.4, HBS-EP. The procedure:
as §1

Another assay deals with T4, rANGPTL3(17-240)-mmH (Rattus norvegicus).
T4 construct: also called N-terminal coiled-coil domain of ANGPTL3 from Rattus norvegicus with myc-myc-hexahistidine tag
T4 chain: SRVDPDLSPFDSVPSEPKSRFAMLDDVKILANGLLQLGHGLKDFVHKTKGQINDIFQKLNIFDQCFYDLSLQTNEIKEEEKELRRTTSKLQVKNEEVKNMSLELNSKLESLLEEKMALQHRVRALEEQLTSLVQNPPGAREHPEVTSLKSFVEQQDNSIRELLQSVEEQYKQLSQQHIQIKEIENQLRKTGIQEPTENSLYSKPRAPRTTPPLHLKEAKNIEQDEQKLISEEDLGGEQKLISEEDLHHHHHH
The assay is described as follows: SPR Biacore, antigen captured, 25C, pH 7.4, HBS-EP. The method, then: as §1

Assay [1] has as its target T5, C-terminal biotin tagged Peptide 2 (human, C-terminal biotin tag).
T5 construct: Immobilised on streptavidin biosensor tips; also called ANGPTL3 peptide
T5 peptide: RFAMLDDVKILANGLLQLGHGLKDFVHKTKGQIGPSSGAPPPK
Kind of assay: OCTET RED label-free biosensor; biotinylated peptide on streptavidin-coated tips dipped into 1 uM antibody, binding monitored for 2.5 minutes. The method, then: (§2) To assess the binding of the anti-ANGPTL3 antibody H4H1276S to peptides derived from the N-terminal coiled-coil region of ANGPTL3, a label-free biosensor binding assay was performed using OCTET® RED system (ForteDo, Inc.). […] The peptide-coated biosensor tips were then dipped into wells containing 1 μM of either anti-ANGPTL3 antibody H4H1276S or an isotype-matched negative control antibody, and binding was monitored for 2.5 minutes. It was observed that H4H1276S binds to the ANGPTL3 linear sequence defined by Peptide 2 but not the overlapping but distinct sequence defined by Peptide 3 (see also FIG. 1). The isotype control antibody also served as a positive control for loading of Peptide 1 (i.e., hANGPTL4 peptide) onto the biosensor, because this isotype control antibody specifically recognizes hANGPTL4.

Assay [2] addresses T6, N-terminal biotin tagged Peptide 3 (human, N-terminal biotin tag).
T6 construct: Immobilised on streptavidin biosensor tips; also called ANGPTL3 peptide
T6 peptide: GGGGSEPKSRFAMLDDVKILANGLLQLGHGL
Described as above. The procedure:
as §2

B1: H4H1276S (antibody, IgG4, V domains shown)
VH: EVQLVESGGGVIQPGGSLRLSCAASGFTFDDYAMNWVRQGPGKGLEWVSAISGDGGSTYYADSVKGRFTISRDNSKNSLYLQMNSLRAEDTAFFYCAKDLRNTIFGVVIPDAFDIWGQGTMVTVSS
VL: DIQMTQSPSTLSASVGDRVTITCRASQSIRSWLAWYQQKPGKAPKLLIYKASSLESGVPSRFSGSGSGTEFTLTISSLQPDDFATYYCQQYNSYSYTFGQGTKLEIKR
Consider B1, for which the Kd came to 0.491 nM with hANGPTL3(17-460)-His, 0.396 nM in the assay with MfANGPTL3(17-170)-mmH, 0.268 nM in the assay with mANGPTL3(17-455)-His and 0.53 nM with rANGPTL3(17-240)-mmH. Further, the off-rate (koff) stood at 0.000289 s⁻¹ in the assay with hANGPTL3(17-460)-His, 0.000535 s⁻¹ with MfANGPTL3(17-170)-mmH, 0.000346 s⁻¹ with mANGPTL3(17-455)-His and 0.000718 s⁻¹ with rANGPTL3(17-240)-mmH. Besides, the association rate constant (kon) in the assay with hANGPTL3(17-460)-His came to 588000 M⁻¹ s⁻¹; with MfANGPTL3(17-170)-mmH, 1.35e+06 M⁻¹ s⁻¹; with mANGPTL3(17-455)-His, 1.29e+06 M⁻¹ s⁻¹; with rANGPTL3(17-240)-mmH, 1.35e+06 M⁻¹ s⁻¹. For the same molecule, the t1/2 was 40 min with hANGPTL3(17-460)-His, 21.6 min in the assay with MfANGPTL3(17-170)-mmH, 33.4 min in the assay with mANGPTL3(17-455)-His and 16.1 min with rANGPTL3(17-240)-mmH. For the same molecule, the binding result in assay [1] is on record as “binds”; in assay [2], “no binding (tested: 1 uM)”.
